Results as given in CN108948194A.

Experiments:
[1] = target: 全长人CTLA-4 on cells (293F stable line) (human) (UniProt P16410); experiment: FACS on 293F cells expressing human CTLA-4
[2] = target: 人CTLA-4.ECD-6xHis (human) (UniProt P16410); experiment: ELISA; human CTLA-4.ECD-6xHis coated at 1.0 μg/mL
[3] = target: 小鼠CTLA-4.ECD-6xHis (mouse) (UniProt P09793); experiment: ELISA; mouse CTLA-4.ECD-6xHis coated at 0.5 μg/mL
[4] = target: T1, 食蟹猴CTLA-4.ECD-6xHis (cynomolgus monkey) (UniProt G7PL88); experiment: ELISA; cynomolgus CTLA-4.ECD-6xHis coated at 0.5 μg/mL
T1 sequence: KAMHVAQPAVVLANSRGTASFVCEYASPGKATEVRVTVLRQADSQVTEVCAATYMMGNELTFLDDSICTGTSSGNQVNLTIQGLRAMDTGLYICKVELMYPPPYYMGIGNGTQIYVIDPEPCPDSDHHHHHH

[5] = target: 小鼠CTLA-4.ECD-6xHis (mouse) (UniProt P09793); experiment: SPR; antibody captured, mouse CTLA-4.ECD-6xHis as analyte, 1:1 fit
[6] = target: T1, 食蟹猴CTLA-4.ECD-6xHis (cynomolgus monkey); experiment: SPR; antibody captured, cynomolgus CTLA-4.ECD-6xHis as analyte, 1:1 fit
[7] = target: 全长人CTLA-4 on cells (293F stable line) (human) (UniProt P16410); experiment: FACS affinity (modified Benedict method) on cells expressing human CTLA-4
人CTLA-4.ECD.hFc (human) [8] = target: 人CTLA-4.ECD.hFc (human) (UniProt P16410); experiment: competition ELISA; CTLA-4.ECD.hFc coated, competitor CD80-6xHis at 0.25 μg/mL
人CTLA-4.ECD.hFc (human) [9] = target: 人CTLA-4.ECD.hFc (human) (UniProt P16410); experiment: competition ELISA; CTLA-4.ECD.hFc coated, competitor CD86-6xHis at 0.25 μg/mL
[10] = target: 人CTLA-4.ECD-6xHis (human) (UniProt P16410); experiment: SPR (Biacore T200); antibody captured on anti-human Fc, hCTLA-4.ECD-6xHis as analyte, 1:1 fit
人CTLA-4.ECD.hFc (human) [11] = target: 人CTLA-4.ECD.hFc (human) (UniProt P16410); experiment: FACS competition; biotinylated hCTLA-4.ECD.hFc on CD80-expressing CHO cells (competitor CD80)
人CTLA-4.ECD.hFc (human) [12] = target: 人CTLA-4.ECD.hFc (human) (UniProt P16410); experiment: FACS competition; biotinylated hCTLA-4.ECD.hFc on CD86-expressing CHO cells (competitor CD86)

B1: W3162-1.146.19-z12-IgGk (antibody, from another filing, V domains shown)
VH: QVQLQESGPGLVKPSETLSLTCSVTYHTITSGYDWTWIRKPPGKGMEWIGYISYSGNTNYNPSLKSRVTISRDTSKNQFFLKLSSVTAADTAVYYCASMMVPHYYVMDAWGQGTLVTVSS
VL: DIVMTQTPLSLSVTPGQPASISCRSSQSLLNSDGNTYLYWYLQKPGQSPQLLIYLVSKLGSGVPNRFSGSGSGTDFTLKISRVEAEDVGVYYCVQGTHDPWTFGGGTKVEIK
**Q.** B1 was tested. Which EC50 [1] did it give?
**A.** 1.58 nM

**Q.** What about the EC50 [2] of the same binder?
**A.** 0.03 nM

**Q.** What about the EC50 [3] of the same binder?
**A.** 0.19 nM

**Q.** What about the EC50 [4] of the same binder?
**A.** 0.05 nM

**Q.** And the Kd [5]?
**A.** 1.39 nM

**Q.** What about the Kd [6] of the same binder?
**A.** 1.92 nM

**Q.** What about the Kd [7] of the same binder?
**A.** 5.05 nM

**Q.** What about the IC50 (人CTLA-4.ECD.hFc (human) [8]) of the same binder?
**A.** 0.87 nM

**Q.** And the IC50 (人CTLA-4.ECD.hFc (human) [9])?
**A.** 0.71 nM

**Q.** What about the Kd [10] of the same binder?
**A.** 0.477 nM

**Q.** And the IC50 (人CTLA-4.ECD.hFc (human) [11])?
**A.** 6.6 nM

**Q.** What about the percent of CTLA-4 binding blocked at the highest concentration (人CTLA-4.ECD.hFc (human) [11]) of the same binder?
**A.** 71%

**Q.** What about the IC50 (人CTLA-4.ECD.hFc (human) [12]) of the same binder?
**A.** 5.15 nM

**Q.** What about the percent of CTLA-4 binding blocked at the highest concentration (人CTLA-4.ECD.hFc (human) [12]) of the same binder?
**A.** 73%

B2: W3162-1.154.8-z35-IgGk (antibody, from another filing, V domains shown)
VH: QVQLVQSGAEVKKPGSSVKVSCKASGYTFTNYFMNWVRQAPGQGLEWMGRVDPEQGRADYAEKFKKRVTITADKSTSTAYMELSSLRSEDTAVYYCARRAMDNYGFAYWGQGTLVTVSS
VL: EIVLTQSPDFQSVTPKEKVTITCSANSALSYMYWYQQKPDQSPKLWVHGTSNLASGVPSRFSGSGSGTDFTLTINSLEAEDAATYYCHHWSNTQWTFGGGTKVEIK
**Q.** Which results are given for B2?
**A.** EC50 [1]: 0.66 nM; EC50 [2]: 0.04 nM; EC50 [4]: 0.05 nM; Kd [6]: 0.131 nM; Kd [7]: 0.35 nM; IC50 (人CTLA-4.ECD.hFc (human) [8]): 0.63 nM; IC50 (人CTLA-4.ECD.hFc (human) [9]): 0.5 nM; Kd [10]: 0.0968 nM; IC50 (人CTLA-4.ECD.hFc (human) [11]): 0.07 nM; percent of CTLA-4 binding blocked at the highest concentration (人CTLA-4.ECD.hFc (human) [11]): 89%; IC50 (人CTLA-4.ECD.hFc (human) [12]): 0.28 nM; percent of CTLA-4 binding blocked at the highest concentration (人CTLA-4.ECD.hFc (human) [12]): 98%
